{"source": "paper doi:10.1101/2021.02.17.431492", "about": "(bioRxiv, 2021)", "binders": {"B1": {"name": "DH1041 (ACE2 binding site-targeting RBD neutralizing antibody) (antibody, V domains shown)", "VH": "EVQLVESGGGLVQPGGSLRLSCAASGVTFSSYWMSWVRQAPGKGLEWVANIRQDGSEKYSVDSVKGRFTISRDNAKNSLYLQMNSLRAEDTAVYYCARARRADNSGYYGFHFDCWGQGTLVTVSS", "VL": "QSVLTQPPSVSGAPGQRVTISCTGSSSNIGAGYDVHWYQQLPGTAPKLLIYGNNNRPSGVPDRFSDSKSGTSASLAITRLQAEDEADYYCQSYDSSLSGWVFGGGTKLTVL"}, "B2": {"name": "DH1047 antigen binding fragment (Fab) (Fab, V domains shown)", "VH": "QVQLVQSGAEVKKPGASVQVSCQASANTFTNHYIHWVRQAPGQGLEWMGIIYPTGGNTIYAQGFQGRVTMTRDTSLNTIYLELSSLRSEDTAVYYCARDVRVDDSWSGYDLLSGGTYFDYWGQGTLVTVSS", "VL": "not shown"}}, "key": {"[1]": {"molecular_target": "SARS-CoV-2 RBD sortase A conjugated nanoparticle (RBD-scNP) (SARS-CoV-2, Wuhan strain (RBD moiety), UniProt P0DTC2)", "experiment": "BLI"}, "[2]": {"molecular_target": "monomeric SARS-CoV-2 receptor binding domain (RBD) (SARS-CoV-2, UniProt P0DTC2)", "experiment": "SPR"}}}
{"binder": "B1", "values": [{"measurement": "binding result", "setting": "[1]", "value": "binds"}]}
{"binder": "B2", "values": [{"measurement": "Kd", "setting": "[2]", "value": "< 0.02", "unit": "nM"}]}
